According to patent US20110318353A1 (Janssen / Centocor, published 2011):
Numbering of substitutions follows the chain as printed. Like-named read-outs stand apart in the source and are kept apart here. Values belong to the molecule of their own block, whether it stands above or below them.

Experiments:
human IL-25 [1] = biological target: T1, human IL-25 (human, UniProt Q9H293 33-177)
T1 sequence: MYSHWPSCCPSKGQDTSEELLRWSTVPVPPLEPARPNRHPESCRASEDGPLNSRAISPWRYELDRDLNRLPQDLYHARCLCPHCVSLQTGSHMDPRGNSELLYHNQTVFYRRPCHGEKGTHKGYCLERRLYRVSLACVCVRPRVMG

human IL-25 [2] = biological target: T1, human IL-25; assay: Biacore, 7200 sec dissociation
From the text: (§1) The Fabs were converted to mAbs as follows. A combinatorial library of 5 different light chains and 5 different heavy chains (including the huDDG91 light and heavy chains) was designed. The light and heavy chains used in the library differed from one another in the light chain CDR1 and CDR3 amino acid sequences and the heavy chain CDR 3 sequence. Using these light and heavy chains, a total of 25 mAbs (IgG1) were constructed, expressed in HEK293 cells at small scale and purified. Each of the mAbs was tested for IL-25 binding affinity, cellular inhibition, and receptor inhibition as follows: [0149] IL-25 binding affinity was determined using standard IL-25 ELISA and Biacore binding assays. […] Cellular inhibition was assessed using a standard TK-10 human renal carcinoma cell-based assay (IL-25 responsive; IL-25 and IL-8 readout; capable of discerning difference between soluble IL-25R and parental mAb) and a CD4+ T cell-based assay. […] Receptor inhibition was assessed using a modified bead-based electrochemiluminescence immunoassay (ECLIA). Candidates causing a greater than 3-fold decrease in IC₅₀ of IL-25 binding to receptor relative to parental huDDG91 antibody at a 10 nM mAb concentration were selected.

human IL-25 [3] = biological target: T1, human IL-25; assay: Receptor inhibition (column sub-head 'Panel A/ B'): bead-based ECLIA, inhibition of IL-25 binding to the IL-25 receptor
From the text: as §1

human IL-25 [4] = biological target: T1, human IL-25; assay: Biacore, 7200 sec dissociation; first R71V G1 row
From the text: as §1

human IL-25 [5] = biological target: T1, human IL-25; assay: Biacore, 7200 sec dissociation; second R71V G1 row, printed in italics = number from a different data set
human IL-25 [6] = biological target: T1, human IL-25; assay: Receptor inhibition (column sub-head 'Panel A/ B'): bead-based ECLIA, inhibition of IL-25 binding to the IL-25 receptor; lower end of the range
From the text: as §1

human IL-25 [7] = biological target: T1, human IL-25; assay: Receptor inhibition (column sub-head 'Panel A/ B'): bead-based ECLIA, inhibition of IL-25 binding to the IL-25 receptor; upper end of the range
From the text: as §1

human IL-25 [8] = biological target: T1, human IL-25; assay: cell-based or functional assay
human IL-25 [9] = biological target: T1, human IL-25; assay: Biacore, 7200 sec dissociation; printed in italics = number from a different data set
cynomolgus monkey IL-25 = biological target: T2, cynomolgus monkey IL-25 (cynomolgus monkey, UniProt G7P9V9 33-176); assay: species cross-reactivity criterion; method not stated
T2 construct: also called cynoIL-25; cyno IL-25
T2 sequence: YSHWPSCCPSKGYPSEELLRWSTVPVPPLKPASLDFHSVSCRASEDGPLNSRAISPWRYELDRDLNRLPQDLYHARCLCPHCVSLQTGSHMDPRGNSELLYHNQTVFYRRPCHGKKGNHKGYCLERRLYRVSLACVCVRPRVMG

human IL-25 [10] = biological target: T1, human IL-25; assay: receptor inhibition: IL-25 binding to receptor, bead-based ECLIA

B1: huDDG91 antibody (antibody, V domains shown)
VH: EVQLVESGAEVKKPGASVKVSCKASGYSFSGYTMNWVRQAPGQRLEWMGLINPYNGGTSYNQNFKGRVTLTVDTSASTAYLELNSLRSEDTGVYYCAREDYDGYLYFAMDYWGQGTLVTVS
VL: DIQMTQSPSSLSASVGDRVTITCSASQGISNYLNWYQQKPGKVPKLLIYYTSSLHSGVPSRFSGSGSGTDFTLTISSLQPEDVATYYCQQYSKLPYTFGQGTKLEIK
notes: Humanized (CDR-grafted) version of murine 2C3; also called RH2.5_R71V; M9
Kd (human IL-25 [4]): 0.194 nM | Kd (human IL-25 [5]): 0.136 nM | IC50 (human IL-25 [6]): ≥ 0.0452 nM | IC50 (human IL-25 [7]): ≤ 0.0643 nM

B3: I25M32 (antibody, V domains shown)
VH: B1 VH with G103S, Y104W, L105T, Y106F
VL: B1 VL with S30N, N31E, S92I, K93N, L94F
notes: One of the 9 candidate IgG1 mAbs of the combinatorial library based on huDDG91
Cellular inhibition, fold change (human IL-25 [8]): 4 fold change | Kd (human IL-25 [2]): 0.087 nM | IC50 (human IL-25 [3]): 0.011 nM

B8: I25M31 (antibody, V domains shown)
VH: B1 VH with Y101F, G103S, Y104W, L105T
VL: B1 VL
notes: as for B3
Cellular inhibition, fold change (human IL-25 [8]): 12 fold change | Kd (human IL-25 [2]): 0.04 nM | IC50 (human IL-25 [3]): 0.018 nM

B9: I25M28 (antibody, V domains shown)
VH: B1 VH with Y101F, G103S, Y104W, L105T
VL: B1 VL with S92L, K93A, L94F
notes: as for B3
Cellular inhibition, fold change (human IL-25 [8]): 16 fold change | Kd (human IL-25 [2]): 0.019 nM | IC50 (human IL-25 [3]): 0.014 nM

B10: M6 antibody (antibody, human IgG1, kappa, V domains shown)
VH: EVQLVESGAEVKKPGASVKVSCKASGYSFSGYTMNWVRQAPGQRLEWMGLINPYNGGTSYNQNFKGRVTLTVDTSASTAYLELNSLRSEDTGVYYCAREDYDGYLYFAMDYWGQGTLVTVSS
VL: DIQMTQSPSSLSASVGDRVTITCSASQGISNYLNWYQQKPGKVPKLLIYYTSSLHSGVPSRFSGSGSGTDFTLTISSLQPEDVATYYCQQYLAFPYTFGQGTKLEIKR
notes: Humanized IgG1 mAb with kappa light chain, a variant of huDDG91 with three substitutions in light chain CDR3
Cellular inhibition, fold change (human IL-25 [8]): 4 fold change | Kd (human IL-25 [2]): 0.053 nM | affinity relative to that for human IL-25 (cynomolgus monkey IL-25): ≤ 5 fold | fold decrease in IC50 compared to huDDG91 (human IL-25 [10]): > 3 fold | IC50 (human IL-25 [3]): 0.012 nM

Continued by falling IC50 (human IL-25 [3]), values first:

Cellular inhibition, fold change (human IL-25 [1]): 1 fold change | Kd (human IL-25 [2]): 0.017 nM | IC50 (human IL-25 [3]): 0.063 nM
Molecule: IL-17BR (receptor)

Cellular inhibition, fold change (human IL-25 [8]): 3 fold change | Kd (human IL-25 [2]): 0.044 nM | IC50 (human IL-25 [3]): 0.02 nM
B5: I25M30 (antibody, V domains shown)
VH: B1 VH with Y101F, G103S, Y104W, L105T
VL: B1 VL with S30H, N31W, Y32N, Y91F, S92N, K93S, L94F
notes: as for B3

Cellular inhibition, fold change (human IL-25 [8]): 5 fold change | Kd (human IL-25 [2]): 0.057 nM | IC50 (human IL-25 [3]): 0.014 nM
B2: I25M11 (antibody, V domains shown)
VH: B1 VH with Y101F, G103S, Y104W, L105T, Y106F
VL: B1 VL with S30A, N31S, Y32F, K93S, L94F
notes: as for B3

Cellular inhibition, fold change (human IL-25 [8]): 5 fold change | Kd (human IL-25 [2]): 0.036 nM | IC50 (human IL-25 [3]): 0.014 nM
B6: I25M10 (antibody, V domains shown)
VH: B1 VH with Y101F, G103S, Y104W, L105T, Y106F
VL: B1 VL with S92L, K93A, L94F
notes: as for B3

Cellular inhibition, fold change (human IL-25 [8]): 7 fold change | Kd (human IL-25 [2]): 0.064 nM | IC50 (human IL-25 [3]): 0.013 nM
B4: I25M34 (antibody, V domains shown)
VH: B1 VH with Y101F, G103S, Y104W, L105T
VL: B1 VL with S30N, N31E, S92I, K93N, L94F
notes: as for B3

Cellular inhibition, fold change (human IL-25 [8]): 20 fold change | Kd (human IL-25 [9]): 0.045 nM | IC50 (human IL-25 [3]): 0.013 nM
B7: I25M20 (antibody, V domains shown)
VH: B1 VH with G103S, Y104W, L105T, Y106F
VL: B1 VL with S92L, K93A, L94F
notes: as for B3
